# Numbering of substitutions follows the chain as printed.
# T1: human PACAP27 (human, C-terminal leucine is amidated; 125I-labelled in Example 10)
# T1 peptide: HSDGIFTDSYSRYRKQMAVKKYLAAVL
# T2: human PACAP38 (human, not fully specified; C-terminal lysine is amidated; N-terminal or C-terminal biotin in the HTRF and PC-12 cell binding assays)
# T2 peptide: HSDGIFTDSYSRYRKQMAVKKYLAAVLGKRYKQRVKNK
# T3: human VIP (human)
# T3 construct: also called Vasoactive Intestinal Peptide
# T3 peptide: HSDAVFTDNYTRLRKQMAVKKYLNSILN
# B1: anti-PACAP antibody Ab10 (antibody, V domains shown)
# VH: QSVEESGGRLVTPGTPLTLTCTVSGIDLNSYYMTWVRQAPGKGLEWIGFIDAGGDAYYASWAKGRFTISKTSTTVDLKITSPTTEDTATYFCARDLDLWGQGTLVTVSS
# VL: AAVLTQTPSPVSAAVGGTVTINCQSSESVYGNYLAWFQQKPGQPPKLLIYEASKLESGVPSRFSGSGSGTQFTLTISDLQCDDAATYYCAGGDISEGVAFGGGTEVVVKR
# B2: anti-PACAP antibody Ab11 (antibody, human IgG1, kappa, N297A, V domains shown)
# VH: QSVEESGGRLVTPGTPLTLTCTASGFSLSRYAMGWVRQAPGKGLEWIGDISTYGTTDYASWVNGRFTISRTSTTVTLKMTSLTTEDTATYFCARDYWLSLWGQGTLVTVSS
# VL: AAVLTQTPSPVSAAVGGTVTIKCQSSQSVYDNNALAWYQQKPGQPPKLLIYAASNLASGVPDRFSGSGSGTQFTLTISGVQCDDAATYYCLGGYDDAADNAFGGGTEVVVKR
# notes: full-length rabbit/human chimeric antibody
# B3: anti-PACAP antibody Ab7 (antibody, human IgG1, kappa, N297A, V domains shown)
# VH: B2 VH with F26I, S27D, R30G, Q103P
# VL: B2 VL with N55T, D62S, S65K, S78N, A97P
# notes: as for B2
# B4: anti-PACAP antibody Ab12 (antibody, human IgG1, kappa, N297A, V domains shown)
# VH: B2 VH with R30S, N63Y
# VL: B2 VL with N55T, D62S, Q72E, D95Y, A97P
# notes: as for B2
# B5: anti-PACAP antibody Ab10.H (antibody, V domains shown)
# VH: EVQLVESGGGLVQPGGSLRLSCAASGIDLNSYYMTWVRQAPGKGLEWIGFIDAGGDAYYASWAKGRFTISRDNSKNTVYLQMNSLRAEDTAVYFCARDLDLWGQGTLVTVSS
# VL: DAQLTQSPSTLSASVGDRVTITCQSSESVYGNYLAWFQQKPGKAPKFLIYEASKLESGVPSRFSGSGSGTEFTLTISSLQPDDFATYYCAGGDISEGVAFGGGTKVEIKR
# B6: anti-PACAP antibody Ab13 (antibody, human IgG1, kappa, N297A, V domains shown)
# VH: QSVEESGGRLVTPGTPLTLTCTVSGFSLSSAAMNWVRQAPGKGLEWIGIIDNTAGTYYAPWAKGRFTISKTSSTTVDLKMTSPTTEDTATYFCARGGGEFFIWGPGTLVTVSS
# VL: AQVLTQTPSSVSAAVGGTVTINCQSSQSVHDGSYLSWYQQKPGQPPNFLIYQASNLASGVPSRFKGSGSGTQFTLTISDLECDDAATYYCAGGYSSNICGFGGGTEVVVKR
# notes: as for B2
# B7: anti-PACAP antibody Ab3 (antibody, human IgG1, kappa, N297A, V domains shown)
# VH: QEQLVESGGGLVQPEGSLTLTCTASGFSFSSSDYMCWVRQAPGKGLEWIGCIDAGSSGDTYFASWAKGRFTISKTSSTTVTLQMTSLTAADTATYFCARHLYGSITFAFGLWGQGTLVTVSS
# VL: AAVLTQTPSPVSAAVGGTVTINCQASQSIGSDLAWYQQKPGQPPKLLIYDASTLASGVPSRFSGSGSGTQFTLTISGVQCDDAATYYCQGTYYSSGWYTAFGGGTEVVVKR
# notes: as for B2
# Tests used:
# human PACAP27 [1] = target: T1, human PACAP27; assay: SPR, Ab immobilised
# Description: [The procedure below names another target; the source says it served here with some conditions changed.] (§1) Binding affinities of monoclonal antibodies for human PACAP were estimated using SPR on the PROTEON™ XPR36 (Bio-Rad, Hercules, Calif.). Antibody was immobilized to the surface of general amine coupling (“GLC” or “GLM”) Chips (Bio-Rad, Hercules, Calif.). A dilution series of human PACAP38 (SEQ ID NO: 1241) prepared in 1×PBST Buffer (4.3 mM Na Phosphate, 1.4 mM K Phosphate, 135 mM NaCl, 2.7 mM KCl 0.05% Polysorbate-20) purchased from Teknova (Cat# P1192, Teknova, Hollister, Calif.) and supplemented with 0.25 M arginine (from J.T. BAKER®), 0.2 mg/ml BSA (Jackson Immuno Research Labs, West Grove, Pa.), and 0.005% sodium azide (VWR International, Radnor, Pa.) with the pH adjusted to 7 was used to query the antibodies. Antigen (ranging from 1.23 nM to 100 nM) was typically run sequentially with association times of 2-4 minutes and dissociation times of 3-120 minutes grouped with the PROTEON™ Manager Software (v3.1.0.6 (Bio-Rad, Hercules, Calif.)) and fitted using a 1:1 Langmuir binding model. Surfaces were regenerated between analyte queries using 0.85% Phosphoric Acid.
# human PACAP38 [2] = target: T2, human PACAP38; assay: cell-based or functional assay
# human PACAP27 [3] = target: T1, human PACAP27; assay: cell-based or functional assay
# human PACAP38 [4] = target: T2, human PACAP38; assay: HTRF binding, biotin-PACAP38
# Description: In parallel, 10 μl of an antibody dilution series (highest final concentration of 100 nM) were incubated with 10 μl of N-terminal or C-terminal biotinylated PACAP38 (35 nM final) alone, or in combination with either PACAP27 (350 nM final) or VIP (350 nM final), i.e., 10× PACAP27 or 10×VIP, respectively, in a HTRF plate. 20 μl of Eu³⁺ cryptate labeled anti-hu Fc donor and 20 μl of d2-labeled streptavidin acceptor were added to each well and incubated for 1 hour at room temperature. Fluorescence was measured at 620 and 665 nm with a delay of 300 μsec.
# EC₅₀ values, i.e. the concentration of an antibody that yields a response halfway between the baseline and the maximum value within a specified time period, were computed for each antibody based upon their binding curves and are shown in Table 1 below. […] A humanized form of antibody Ab1 was produced and is identified by an appended “.H”, i.e., Ab1.H, and it also bound PACAP38 with high affinity.
# human PACAP38 [5] = target: T2, human PACAP38; assay: cell-based or functional assay
# human PACAP38 [6] = target: T2, human PACAP38; assay: SPR, Ab immobilised
# Description: as §1
# human VIP = target: T3, human VIP; assay: SPR, Ab immobilised
# Description: [The procedure below names another target; the source says it served here with some conditions changed.] as §1
# human PACAP38 [7] = target: T2, human PACAP38; assay: inhibition of 100 nM biotin-PACAP38 binding to PC-12 cells, TRF
# Description: To identify antibodies that block PACAP38 binding to PAC1-R-expressing cells, adherent PC-12 cells (ATCC, Manassas, Va.) expressing PAC1-R were used in a Europium-based PAC1-R expressing cells binding assay.
# Antibody solutions were incubated with N-terminal biotinylated PACAP38 at 10× the final concentration (100 nM or 30 nM) for 1 hr, then added to PC-12 cells that were plated 24 hrs. prior in black clear bottom 96 well plates (COSTAR™, Corning Incorporated, Corning, N.Y.) and further incubated for 1 hr at room temperature. After three washes, the cells were incubated with 20 μl Europium-labeled streptavidin (PerkinElmer, Waltham, Mass.) for 1 hr at room temperature. Cells were washed three times, then 20 μl DELFIA® Enhancement solution (PerkinElmer, Waltham, Mass.) was added to each well and incubated for 15 minutes with gentle shaking. Plates were read (Time Resolved Fluorescence (“TRF”)) on SPECTRAMAX® (Molecular Devices, Sunnyvale, Calif.) plate reader.
# FIGS. 14A-14BB are representative of the inhibition curves obtained by this method (results are shown for Ab1, Ab2, Ab3, Ab4, Ab5, Ab6, Ab7, Ab8, Ab9, Ab10, Ab11, Ab12, Ab13, Ab14, Ab15, Ab16, Ab17, Ab18, Ab19, Ab1.H, Ab10.H, Ab22, Ab23, Ab3.H, Ab4.H, Ab5.H, Ab9.H, and Ab12.H, respectively) wherein the PAC1-R expressing cells were PC-12 cells.
# human PACAP38 [8] = target: T2, human PACAP38; assay: cell-based or functional assay
Binder,Kd (human PACAP27 [1]) [nM],koff (human PACAP27 [1]) [s⁻¹],"IC50, 0.1 nM PACAP38-induced PAC1-R mediated cAMP increase (human PACAP38 [2]) [nM]","IC50, 0.1 nM PACAP27-induced PAC1-R mediated cAMP increase (human PACAP27 [3]) [nM]",EC50 (human PACAP38 [4]) [µM],"IC50, 5 nM PACAP38-induced human VPAC1-R mediated cAMP increase (human PACAP38 [5]) [µM]",Kd (human PACAP38 [6]) [nM],koff (human PACAP38 [6]) [s⁻¹],kon (human PACAP38 [6]) [M⁻¹ s⁻¹],kon (human PACAP27 [1]) [M⁻¹ s⁻¹],Kd (human VIP) [µM],koff (human VIP) [s⁻¹],kon (human VIP) [M⁻¹ s⁻¹],IC50 (human PACAP38 [7]) [µM],"IC50, 1 nM PACAP38-induced human VPAC2-R mediated cAMP increase (human PACAP38 [8]) [µM]"
B1,0.01,1e-05,,,,,,,,,,,,,
B2,0.42,0.00011,0.0567,0.109,0.00053,0.000541,0.11,3.1e-05,270000,260000,0.23,0.047,200000,0.0246,0.000265
B3,0.2,4.5e-05,0.111,0.0458,0.00045,0.000687,≤ 0.056,≤ 1e-05,180000,230000,0.034,0.0088,260000,0.022,0.000162
B4,0.07,2.1e-05,0.0511,0.0604,0.00051,0.000292,≤ 0.032,≤ 1e-05,310000,290000,0.0082,0.0024,290000,0.0226,0.000179
B5,,,,,,,0.029,1e-05,,,,,,,
B6,0.12,6.6e-05,0.0824,0.0741,0.00048,0.00218,0.064,2.7e-05,420000,540000,0.14,0.046,320000,0.0531,0.000652
B7,0.37,0.00014,0.227,0.09,0.00045,0.00174,0.16,4.2e-05,260000,370000,100000,0.1,,0.0172,0.000667
